Laboratory results reported in the supplement of paper PMC10567573.

B1: KLHL12 (parent)
chain: LDYTADEDGVWYSVAPMNVRRGLA

Variants of: B1
Test: protein stability index of a GFP-peptide fusion (GPS, HEK-293T) (PSI 1-6); higher = more stable
Conditions: c terminus: a fixed tail appended
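Further: lentivirally expressed fusions sorted by FACS into six bins by GFP to DsRed ratio, PSI derived from sequencing read proportions per bin multiplied by bin number.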

Question: For LDYTASEDGVWYSVAPMNVRRGLA [D6S], which protein stability index is on record?
Answer: 1.91

Question: For LDYTADEDGYWYSVAPMNVRRGLA [V10Y], which protein stability index is on record?
Answer: 2.44

Question: Which protein stability index does the source give for LDYTADEDVVWYSVAPMNVRRGLA [G9V] here?
Answer: 1.82

Question: For LDYTADEDGVWYSVAPMNVRPGLA [R21P], which protein stability index is on record?
Answer: 1.8

Question: For LDYTAHEDGVWYSVAPMNVRRGLA [D6H], which protein stability index is on record?
Answer: 1.85

Question: With LDYTADEDGVWYSVAPMNVRRGLS [A24S] as the variant, how does the protein stability index read?
Answer: 2.17

Question: Which protein stability index does the source give for LDFTADEDGVWYSVAPMNVRRGLA [Y3F] here?
Answer: 2.29

Question: Which protein stability index does the source give for LDYTVDEDGVWYSVAPMNVRRGLA [A5V] here?
Answer: 2.02

Question: With LDYTYDEDGVWYSVAPMNVRRGLA [A5Y] as the variant, how does the protein stability index read?
Answer: 2.6

Question: For LDYTADEDGVQYSVAPMNVRRGLA [W11Q], which protein stability index is on record?
Answer: 3.38

Question: Which protein stability index does the source give for LDYTADEDGVWYSVAPMVVRRGLA [N18V] here?
Answer: 2.35

Question: With LDYTADADGVWYSVAPMNVRRGLA [E7A] as the variant, how does the protein stability index read?
Answer: 1.28

Question: For LAYTADEDGVWYSVAPMNVRRGLA [D2A], which protein stability index is on record?
Answer: 2.3

Question: With LDYTADEDGVLYSVAPMNVRRGLA [W11L] as the variant, how does the protein stability index read?
Answer: 3.21

Question: For LDYTADEDGVWYSVADMNVRRGLA [P16D], which protein stability index is on record?
Answer: 3.07

Question: For LDYTADEDGVWYSQAPMNVRRGLA [V14Q], which protein stability index is on record?
Answer: 3.31

Question: Which protein stability index does the source give for LDYTADEDGVWKSVAPMNVRRGLA [Y12K] here?
Answer: 3.63

Question: For LDATADEDGVWYSVAPMNVRRGLA [Y3A], which protein stability index is on record?
Answer: 3.65

Question: Which protein stability index does the source give for LDYTADEDGVWYSVAPMNVRRGPA [L23P] here?
Answer: 2.35

Question: Which protein stability index does the source give for LDYTPDEDGVWYSVAPMNVRRGLA [A5P] here?
Answer: 2.23

Question: Which protein stability index does the source give for LDYTNDEDGVWYSVAPMNVRRGLA [A5N] here?
Answer: 2.19

Question: Which protein stability index does the source give for LDYTADEDGVWYEVAPMNVRRGLA [S13E] here?
Answer: 2.77

Question: With LDYTADEDGVWYSVAPGNVRRGLA [M17G] as the variant, how does the protein stability index read?
Answer: 2.28

Question: Which protein stability index does the source give for LDYTADEDDVWYSVAPMNVRRGLA [G9D] here?
Answer: 2.63

Question: Which protein stability index does the source give for LDYTADEDGVWYVVAPMNVRRGLA [S13V] here?
Answer: 2.28

Question: Which protein stability index does the source give for LDYTADEDIVWYSVAPMNVRRGLA [G9I] here?
Answer: 1.88

Question: With LIYTADEDGVWYSVAPMNVRRGLA [D2I] as the variant, how does the protein stability index read?
Answer: 1.37

Question: For LDYTADEDGVWYSVAPMNVRRGGA [L23G], which protein stability index is on record?
Answer: 2.29

Question: Which protein stability index does the source give for LDYTADEDGVWYSNAPMNVRRGLA [V14N] here?
Answer: 2.83

Question: Which protein stability index does the source give for LDYTADEDGVWYSVAPMNVRRILA [G22I] here?
Answer: 2.16

Question: For LDYAADEDGVWYSVAPMNVRRGLA [T4A], which protein stability index is on record?
Answer: 2.24

Question: With LDYTADEDGVWYSVAPMNVYRGLA [R20Y] as the variant, how does the protein stability index read?
Answer: 1.97

Question: For LDYTAAEDGVWYSVAPMNVRRGLA [D6A], which protein stability index is on record?
Answer: 1.93

Question: For LDYTADEDGVWYSVAPANVRRGLA [M17A], which protein stability index is on record?
Answer: 2.45

Question: With LDYTADEDGVWYSVVPMNVRRGLA [A15V] as the variant, how does the protein stability index read?
Answer: 1.76

Question: For LDYTADEDGVWYSKAPMNVRRGLA [V14K], which protein stability index is on record?
Answer: 4.17

Question: For LDYTADEDGVWYSVAPMNVRRGLM [A24M], which protein stability index is on record?
Answer: 1.75

Question: For LDYTADCDGVWYSVAPMNVRRGLA [E7C], which protein stability index is on record?
Answer: 1.65

Question: For QDYTADEDGVWYSVAPMNVRRGLA [L1Q], which protein stability index is on record?
Answer: 4

Question: With LDYTADQDGVWYSVAPMNVRRGLA [E7Q] as the variant, how does the protein stability index read?
Answer: 2.43

Question: With LDYHADEDGVWYSVAPMNVRRGLA [T4H] as the variant, how does the protein stability index read?
Answer: 1.77

Question: Which protein stability index does the source give for LDYTADEDGVWYSVTPMNVRRGLA [A15T] here?
Answer: 2.04

Question: Which protein stability index does the source give for LDYTADEDGVWYSVAPMNVRRGHA [L23H] here?
Answer: 2.28

Question: Which protein stability index does the source give for LDYTAFEDGVWYSVAPMNVRRGLA [D6F] here?
Answer: 2.98

Question: With LDYTADEDGVWYSTAPMNVRRGLA [V14T] as the variant, how does the protein stability index read?
Answer: 3

Question: Which protein stability index does the source give for LDYTADEDGVWHSVAPMNVRRGLA [Y12H] here?
Answer: 3.24

Question: Which protein stability index does the source give for MDYTADEDGVWYSVAPMNVRRGLA [L1M] here?
Answer: 2.2

Question: With LDYTADEDGVWYSVAPMNVRRMLA [G22M] as the variant, how does the protein stability index read?
Answer: 1.95

Question: Which protein stability index does the source give for LDYTADEDGVWYSVAPMNVRRGLY [A24Y] here?
Answer: 2.39

Question: Which protein stability index does the source give for LDYTADEDGVWYSVAPMNVRRKLA [G22K] here?
Answer: 2.23

Question: Which protein stability index does the source give for LDYTFDEDGVWYSVAPMNVRRGLA [A5F] here?
Answer: 1.37

Question: Which protein stability index does the source give for LDYTADEDGVWYSVAPMNMRRGLA [V19M] here?
Answer: 1.52

Question: With LDYTADEKGVWYSVAPMNVRRGLA [D8K] as the variant, how does the protein stability index read?
Answer: 2.24

Question: Which protein stability index does the source give for LDYTADEDGVWYSVAPMNVRQGLA [R21Q] here?
Answer: 1.71

Question: For LDYTADEDGEWYSVAPMNVRRGLA [V10E], which protein stability index is on record?
Answer: 3.37

Question: Which protein stability index does the source give for TDYTADEDGVWYSVAPMNVRRGLA [L1T] here?
Answer: 3.18

Question: For LDYTADEDGVWYSHAPMNVRRGLA [V14H], which protein stability index is on record?
Answer: 3.39

Question: Which protein stability index does the source give for LDYTAYEDGVWYSVAPMNVRRGLA [D6Y] here?
Answer: 1.51

Question: Which protein stability index does the source give for LDYTADEDGMWYSVAPMNVRRGLA [V10M] here?
Answer: 2.32

Question: For LDYTADEDGVWYSVAPMKVRRGLA [N18K], which protein stability index is on record?
Answer: 1.54

Question: For LDYTADEDGVWYSVAPMNVRRGEA [L23E], which protein stability index is on record?
Answer: 2.41

Question: With LDITADEDGVWYSVAPMNVRRGLA [Y3I] as the variant, how does the protein stability index read?
Answer: 1.85

Question: For LDYTADEDGVWYSVAPMNVRRGFA [L23F], which protein stability index is on record?
Answer: 1.83

Question: Which protein stability index does the source give for LDYTADEDGVWYFVAPMNVRRGLA [S13F] here?
Answer: 2.6

Question: Which protein stability index does the source give for FDYTADEDGVWYSVAPMNVRRGLA [L1F] here?
Answer: 2.16

Question: For VDYTADEDGVWYSVAPMNVRRGLA [L1V], which protein stability index is on record?
Answer: 2.25

Question: For LDYTADEDGVWYMVAPMNVRRGLA [S13M], which protein stability index is on record?
Answer: 1.92

Question: With LDYTADEDGVWYSVAPMNVRRGYA [L23Y] as the variant, how does the protein stability index read?
Answer: 1.99

Question: With LDYTADEDGVWYSVAPMNVRRGNA [L23N] as the variant, how does the protein stability index read?
Answer: 2.77

Question: Which protein stability index does the source give for LDYTADETGVWYSVAPMNVRRGLA [D8T] here?
Answer: 1.48

Question: Which protein stability index does the source give for RDYTADEDGVWYSVAPMNVRRGLA [L1R] here?
Answer: 2.99

Question: Which protein stability index does the source give for LDYTAIEDGVWYSVAPMNVRRGLA [D6I] here?
Answer: 1.4

Question: For LDYTADEDGVWYSVAPLNVRRGLA [M17L], which protein stability index is on record?
Answer: 1.74

Question: With LDYTADEDGVWYSVAPMNVRSGLA [R21S] as the variant, how does the protein stability index read?
Answer: 1.72

Question: With LDYTADEDGVWYSVAPMWVRRGLA [N18W] as the variant, how does the protein stability index read?
Answer: 2.37

Question: With LDYTADGDGVWYSVAPMNVRRGLA [E7G] as the variant, how does the protein stability index read?
Answer: 1.7

Question: For LDYTADEDGVWYSVAPWNVRRGLA [M17W], which protein stability index is on record?
Answer: 1.89

Question: For LDYTADEDGVWYCVAPMNVRRGLA [S13C], which protein stability index is on record?
Answer: 1.97

Question: Which protein stability index does the source give for LDYTADEDGVWYSVAPMNVREGLA [R21E] here?
Answer: 2.21

Question: With HDYTADEDGVWYSVAPMNVRRGLA [L1H] as the variant, how does the protein stability index read?
Answer: 2.67

Question: For LDYTADEDGVWYSVALMNVRRGLA [P16L], which protein stability index is on record?
Answer: 2.41

Question: Which protein stability index does the source give for LDYTAVEDGVWYSVAPMNVRRGLA [D6V] here?
Answer: 1.99

Question: For LDYTADEDGVVYSVAPMNVRRGLA [W11V], which protein stability index is on record?
Answer: 3.62

Question: For LDYTADEDGVWYWVAPMNVRRGLA [S13W], which protein stability index is on record?
Answer: 1.37

Question: With LDYTADEDGVWVSVAPMNVRRGLA [Y12V] as the variant, how does the protein stability index read?
Answer: 2.32

Question: With LNYTADEDGVWYSVAPMNVRRGLA [D2N] as the variant, how does the protein stability index read?
Answer: 1.74

Question: For LDYTADEDGVWYNVAPMNVRRGLA [S13N], which protein stability index is on record?
Answer: 2.13

Question: Which protein stability index does the source give for LDYTADEDGVWYSVAPMNLRRGLA [V19L] here?
Answer: 2.22

Question: Which protein stability index does the source give for LDYTADEDGVWYTVAPMNVRRGLA [S13T] here?
Answer: 1.92

Question: Which protein stability index does the source give for LDYTADEDGVWYSVAWMNVRRGLA [P16W] here?
Answer: 1.59

Question: Which protein stability index does the source give for LDYTADEDGVWYSVAPMNIRRGLA [V19I] here?
Answer: 2.42

Question: For LDYTADEDGHWYSVAPMNVRRGLA [V10H], which protein stability index is on record?
Answer: 2.44

Question: With LDYTAKEDGVWYSVAPMNVRRGLA [D6K] as the variant, how does the protein stability index read?
Answer: 2.44

Question: Which protein stability index does the source give for LDYWADEDGVWYSVAPMNVRRGLA [T4W] here?
Answer: 1.74
